Results: IntAct's records for PubMed 11847120

B1: POU domain, class 2, transcription factor 1 (Homo sapiens), P14859-1 (parent)
chain: MNNPSETSKPSMESGDGNTGTQTNGLDFQKQPVPVGGAISTAQAQAFLGHLHQVQLAGTSLQAAAQSLNVQSKSNEESGDSQQPSQPSQQPSVQAAIPQTQLMLAGGQITGLTLTPAQQQLLLQQAQAQAQLLAAAVQQHSASQQHSAAGATISASAATPMTQIPLSQPIQIAQDLQQLQQLQQQNLNLQQFVLVHPTTNLQPAQFIISQTPQGQQGLLQAQNLLTQLPQQSQANLLQSQPSITLTSQPATPTRTIAATPIQTLPQSQSTPKRIDTPSLEEPSDLEELEQFAKTFKQRRIKLGFTQGDVGLAMGKLYGNDFSQTTISRFEALNLSFKNMCKLKPLLEKWLNDAENLSSDSSLSSPSALNSPGIEGLSRRRKKRTSIETNIRVALEKSFLENQKPTSEEITMIADQLNMEKEVIRVWFCNRRQKEKRINPPSSGGTSSSPIKAIFPSPTSLVATTPSLVTSSAATTLTVSPVLPLTSAAVTNLSVTGTSDTTSNNTATVISTAPPASSAVTSPSLSPSPSASASTSEASSASETSTTQTTSTPLSSPLGTSQVMVTASGLQTAAAAALQGAAQLPANASLAAMAAAAGLNPSLMAPSQFAAGGALLSLNPGTLSGALSPALMSNSTLATIQALASGGSLPITSLDATGNLVFANAGGAPNIVTAPLFLNPQNLSLLTSNPVSLVSAAAASAGNSAPVASLHATSTSAESIQNSLFTVASASGAASTTTTASKAQ
partner: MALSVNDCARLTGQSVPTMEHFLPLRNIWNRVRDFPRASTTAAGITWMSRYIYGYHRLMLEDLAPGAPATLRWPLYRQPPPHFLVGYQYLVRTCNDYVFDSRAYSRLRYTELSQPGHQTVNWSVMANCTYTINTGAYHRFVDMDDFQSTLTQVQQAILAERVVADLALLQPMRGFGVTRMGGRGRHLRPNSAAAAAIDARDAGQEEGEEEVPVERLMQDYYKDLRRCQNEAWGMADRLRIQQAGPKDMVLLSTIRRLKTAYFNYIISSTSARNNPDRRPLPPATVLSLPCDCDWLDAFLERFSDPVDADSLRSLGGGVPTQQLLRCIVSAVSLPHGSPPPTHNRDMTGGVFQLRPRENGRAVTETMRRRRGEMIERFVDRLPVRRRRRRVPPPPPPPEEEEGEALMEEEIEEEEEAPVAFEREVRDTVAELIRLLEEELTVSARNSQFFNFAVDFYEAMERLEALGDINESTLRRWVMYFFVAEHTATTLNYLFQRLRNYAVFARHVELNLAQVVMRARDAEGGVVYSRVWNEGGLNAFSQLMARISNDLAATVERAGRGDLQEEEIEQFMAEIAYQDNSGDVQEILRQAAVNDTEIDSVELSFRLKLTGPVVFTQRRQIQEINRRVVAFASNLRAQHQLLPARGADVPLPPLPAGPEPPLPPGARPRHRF

Variants of: B1
Conditions: with term_ade05 PTP

| Variant | effect of a mutation on the interaction |
| --- | --- |
| C428Y | disrupting interaction strength |
| Q415L;C428S | decreasing interaction strength |
| I412F;V425D | decreasing interaction strength |
| F427Y | disrupting interaction strength |
| K403M | disrupting interaction strength |
| K403E | decreasing interaction strength |
| N429D | disrupting interaction strength |
| K403Q;R424S | decreasing interaction strength |
| T410S | decreasing interaction strength |
| K382T | decreasing interaction strength |
| V425G | disrupting interaction strength |
| T384S | decreasing interaction strength |
| T384P | disrupting interaction strength |
| R431S | decreasing interaction strength |
| D414G;V425G | disrupting interaction strength |
| R380W | disrupting interaction strength |
| K382E;L394S | decreasing interaction strength |
| S377G;K420E | disrupting interaction strength |
| I373T;V425A | decreasing interaction strength |
| E419G;K433E | decreasing interaction strength |
| R383S | decreasing interaction strength |
| E408G | decreasing interaction strength |
| E400G;M418L | decreasing interaction strength |
